{"source": "paper PMC10925418", "about": "“Survivin Mediates Mitotic Onset in HeLa Cells Through Activation of the Cdk1-Cdc25B Axis” (Research Square, 2024)", "binders": {"B1": {"name": "His-Cdk1 1–85 (domain or fragment)", "chain": "not shown", "notes": "Cdk1, human, residues 1-85, deletion mutant made by PCR; source: E. coli BL21, purified (Ni2+-charged agarose); not shown: His-tag, N-terminal, kept"}, "B2": {"name": "SUR A55-D70 peptide (peptide)", "peptide": "AQCFFCFKELEGWEPD", "modifications": "not fully specified (N-terminus); cysteine pairing not given here", "notes": "Survivin residues Ala55 through Asp70; the methods describe only one form of the peptide (biotin and tat at the N-terminus); also called Survivin peptide; Survivin A55-D70; source: synthetic peptide (f-BOC chemistry, HPLC purified; Peptron or W. M. Keck Biotechnology Research Center, Yale)"}}, "conditions_in_all_cases": "both partners purified", "key": {"His-Cdk1": {"target": "T1, His-Cdk1 (human, UniProt P06493 1-297)", "T1 construct": "Cdk1, human, full-length cDNA BC014563 subcloned into pRSETa; also called recombinant His-Cdk1; Cdk1 protein kinase; source: E. coli BL21, purified (Ni2+-charged agarose); not shown: His-tag, N-terminal, kept", "T1 sequence (P06493 whole entry)": "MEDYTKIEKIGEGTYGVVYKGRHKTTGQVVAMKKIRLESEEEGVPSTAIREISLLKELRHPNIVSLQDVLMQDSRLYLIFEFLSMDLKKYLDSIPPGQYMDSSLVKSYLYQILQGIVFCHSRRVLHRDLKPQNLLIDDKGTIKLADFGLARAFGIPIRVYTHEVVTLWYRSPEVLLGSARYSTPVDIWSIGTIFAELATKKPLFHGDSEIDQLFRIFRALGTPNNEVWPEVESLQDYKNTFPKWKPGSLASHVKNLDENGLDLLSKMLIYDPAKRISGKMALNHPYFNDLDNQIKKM", "experiment": "pull-down; GST pull-down: His-tagged recombinant proteins mixed with GST, GST-Survivin or GST-Survivin mutants; Western blotting"}, "GST-Survivin": {"target": "T2, GST-Survivin (UniProt O15392 1-142)", "T2 construct": "Survivin; the printed peptide 55-70 fits human Survivin; also called recombinant Survivin; pGST-Survivin product; source: E. coli BL21, purified (glutathione agarose); not shown: GST, N-terminal, kept", "experiment": "pull-down; GST pull-down: His-tagged recombinant proteins mixed with GST, GST-Survivin or GST-Survivin mutants; Western blotting"}, "His-Cdk1 1–183": {"target": "T3, His-Cdk1 1–183 (human, UniProt P06493 1-183)", "T3 construct": "source: E. coli BL21, purified (Ni2+-charged agarose); not shown: His-tag, N-terminal, kept", "T3 sequence (P06493 1-183)": "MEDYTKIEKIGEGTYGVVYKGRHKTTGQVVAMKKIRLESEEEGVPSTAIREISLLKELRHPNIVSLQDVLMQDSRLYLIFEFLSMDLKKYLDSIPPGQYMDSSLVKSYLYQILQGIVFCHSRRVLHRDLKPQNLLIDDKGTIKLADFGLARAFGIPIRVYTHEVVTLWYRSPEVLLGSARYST", "experiment": "pull-down; streptavidin-binding assay: 50 ug biotinylated peptide bound to streptavidin agarose, mixed with recombinant His-Cdk1 fragments; Western blotting"}, "His-Cdk1 1–85": {"target": "B1", "experiment": "pull-down; streptavidin-binding assay: 50 ug biotinylated peptide bound to streptavidin agarose, mixed with recombinant His-Cdk1 fragments; Western blotting"}, "His-Cdk1 9–85": {"target": "T4, His-Cdk1 9–85 (human, UniProt P06493 9-85)", "T4 construct": "Cdk1, human, residues 9-85, deletion mutant made by PCR; source: E. coli BL21, purified (Ni2+-charged agarose); not shown: His-tag, N-terminal, kept", "T4 sequence (P06493 9-85)": "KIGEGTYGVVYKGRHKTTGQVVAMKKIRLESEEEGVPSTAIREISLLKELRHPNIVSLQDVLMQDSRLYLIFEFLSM", "experiment": "pull-down; streptavidin-binding assay: 50 ug biotinylated peptide bound to streptavidin agarose, mixed with recombinant His-Cdk1 fragments; Western blotting"}, "SUR A55-D70 peptide": {"target": "B2", "experiment": "pull-down; streptavidin-binding assay: 50 ug biotinylated peptide bound to streptavidin agarose, mixed with recombinant His-Cdk1 fragments; Western blotting"}}, "note": "Where no end group is shown, it is not given here.", "data": [{"binder": "GST-Survivin 1-70 (domain or fragment, UniProt O15392 1-70, looked up, Survivin residues 1-70, deletion mutant made by PCR; also called Survivin N-terminus (first 70 amino acids); source: E. coli BL21, purified (glutathione agarose); not shown: GST, N-terminal, kept) MGAPTLPPAWQPFLKDHRISTFKNWPFLEGCACTPERMAEAGFIHCPTENEPDLAQCFFCFKELEGWEPD", "values": [{"measurement": "binding result", "setting": "His-Cdk1", "result": "binds"}]}, {"binder": "B1", "values": [{"measurement": "binding result", "setting": "GST-Survivin", "result": "binds"}]}, {"binder": "B2", "values": [{"measurement": "binding result", "setting": "His-Cdk1 1–183", "result": "binds"}, {"measurement": "binding result", "setting": "His-Cdk1 1–85", "result": "binds"}, {"measurement": "binding result", "setting": "His-Cdk1 9–85", "result": "binds"}]}, {"binder": "His-Cdk1 36–85 (domain or fragment, Cdk1, human, residues 36-85, deletion mutant made by PCR; source: E. coli BL21, purified (Ni2+-charged agarose); not shown: His-tag, N-terminal, kept) not shown", "values": [{"measurement": "binding result", "setting": "SUR A55-D70 peptide", "result": "binds"}]}]}
